Test results: PMC4278905, “Differential Binding of Lef1 and Msx1/2 Transcription Factors to Dkk1 CNEs Correlates with Reporter Gene Expression In Vivo”

B1: CNE195 Tcf/Lef (dsDNA)
DNA 1: ATGAATGAAACTTCAAAGGGCAAGGGTCA
DNA 2: TGACCCTTGCCCTTTGAAGTTTCATTCAT
B2: CNE195Mut(TCF/Lef) (dsDNA)
DNA 1: ATGAATGAAACTTGAATTCGCAAGGGTCA
DNA 2: TGACCCTTGCGAATTCAAGTTTCATTCAT

Target: Lef1 (UniProt P27782 1-397)
Assay: EMSA; 100 ng Lef1, 5 mM Mg2+, 1 ug poly(dI-dC); 20 mM Hepes pH 7.9, 60 mM KCl, 1 mM EDTA, 1 mM DTT, 5 mM MgCl2, 10% glycerol, 1 ug poly(dI-dC), 30 min on ice; 5% native PAGE, 0.5x TBE, 4 C
Conditions: protein: recombinant; tags: GST removed by thrombin (pGEX4T-1); label: 32P (T4 PNK, 5' end); blunt

Sequence of Lef1 (P27782 whole entry): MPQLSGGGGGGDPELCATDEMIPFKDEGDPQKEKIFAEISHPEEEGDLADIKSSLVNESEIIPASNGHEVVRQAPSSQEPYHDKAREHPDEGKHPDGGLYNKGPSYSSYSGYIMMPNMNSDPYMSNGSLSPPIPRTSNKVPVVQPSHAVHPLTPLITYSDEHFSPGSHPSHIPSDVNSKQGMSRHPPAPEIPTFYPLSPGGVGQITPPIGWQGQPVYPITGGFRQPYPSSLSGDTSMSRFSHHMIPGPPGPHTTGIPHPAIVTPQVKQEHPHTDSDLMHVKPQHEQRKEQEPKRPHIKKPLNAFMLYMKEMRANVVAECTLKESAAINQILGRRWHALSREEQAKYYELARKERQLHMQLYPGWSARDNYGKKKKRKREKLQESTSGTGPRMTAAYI

Binder | binding result
B1 | binds
B2 | no binding
